# Test results: the supplement of paper PMC10126150
# ± gives the standard deviation of the averaged measurements.
# Test system: ATP
# Assay: switch fluorescence ratio, 500 uM ATP over buffer (Cy3 cluster intensity, sum of 5 cycles each) (fold (ratio)); higher = stronger signal-on switching upon ATP binding; sequences stand for … in TCGTCGGCAGCGTCAGATGTGTATAAGAGACAGTTTTTTTTTTTTTTTTTTTTTTTTT…TC
# Settings: aptamer strand: ATP DNA aptamer (quencher-CACCTGGGGGAGTATTGCGGAGGAAGG + anchor), 100 nM annealed; ATP concentration: 500 uM
# Method in brief: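 Cy3-labelled switching-strand clusters on a modified Illumina MiSeq flow-cell were annealed to 100 nM quencher-labelled ATP aptamer, imaged in selection buffer, then imaged after 15 min with 500 uM ATP at 22 °C. Five buffer/ATP cycles ran, with NaOH stripping and re-annealing between them. The fluorescence ratio is summed target-cycle over summed buffer-cycle Cy3 intensity per cluster, averaged per switch-domain sequence. Clusters outside 100-1000 RFU were excluded.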
# 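Further: ATP exposure 15 min at 22 °C before imaging.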
row,Sequence,switch fluorescence ratio
1,GATTGAGGGA,1.01 ± 0.016
2,TTGGCAAGCT,1.06 ± 0.072
3,GGGTCCTGGC,0.985 ± 0.037
4,TGATTTCACG,1.02 ± 0.011
5,GCGGGCGGGG,1.02 ± 0.05
6,AGGACGACGG,0.964 ± 0.021
7,GGCGGGGGTT,1.03 ± 0.017
8,TCAATAGCCG,1.12 ± 0.14
9,GGGCATAGTT,0.97 ± 0.018
10,TATTTAAAGG,0.986 ± 0.02
11,CCAGTCATCA,0.9961 ± 0.0014
12,TCTTGGTCTC,0.995 ± 0.027
13,GCTGTTGGCA,1.01 ± 0.025
14,ACACATTTTT,1.011 ± 0.01
15,ATTGTTTAAT,1.03 ± 0.017
16,GCACGCCTGG,1.0842 ± 0.00097
17,GTGGTGGCTG,0.976 ± 0.048
18,GTATTAGGGC,1.02 ± 0.0034
19,ACGGCTCAGA,1.013 ± 0.0079
20,TGGCTTTTAA,1.013 ± 0.007
21,TGGGTCTAGA,0.975 ± 0.023
22,GAACGGGGGA,0.988 ± 0.035
23,TGATTTAATT,0.97 ± 0.036

row,Sequence,switch fluorescence ratio
1,TTGAGGCACG,1.04 ± 0.042
2,TATTTTAGTT,1.02 ± 0.023
3,CCGTAGAGGG,1.38 ± 0.043
4,AATGGTGCGC,0.984 ± 0.017
5,CGGATCTTTG,0.977 ± 0.0033
6,GTCTAAGTGC,0.996 ± 0.011
7,TTTTAGGGAT,1.03 ± 0.021
8,CGTTAATTTA,1.01 ± 0.034
9,TTTTCGGGGG,1 ± 0.04
10,TTTTGGTCGA,1.03 ± 0.022
11,GGAGAACGAT,1.03 ± 0.027
12,CGGTTTCGTG,0.995 ± 0.018
13,TTTTTTTAGT,0.996 ± 0.022
14,TGTTTGAGTT,0.987 ± 0.039
15,CGTTGGAAGC,0.982 ± 0.018
16,TAAGGATGTA,1 ± 0.033
17,CATATTTTTG,0.996 ± 0.013
18,TATGAGAGAG,1.03 ± 0.02
19,CTAAGGTAAG,0.981 ± 0.049
20,AGCGAGTTTT,1.01 ± 0.012
21,ATCTATGCGA,1.0635 ± 0.0004
22,CGCATTTAGA,1.04 ± 0.047
23,ATTTGGCTGT,0.997 ± 0.023

row,Sequence,switch fluorescence ratio
1,GGAGGGAGTT,1.03 ± 0.049
2,GGACGGGTTT,1 ± 0.031
3,CTTGATATTT,0.993 ± 0.015
4,ATTGGAGTCG,0.9477 ± 0.0084
5,GAATATTGAG,0.99 ± 0.019
6,AGGGTGAACC,0.99 ± 0.016
7,TTCGGGAGGA,0.971 ± 0.038
8,ACCTATTTTT,1.01 ± 0.017
9,TCCATGTTCT,0.992 ± 0.034
10,ACGTTTGGTG,0.962 ± 0.03
11,GACTGGGGGA,1.01 ± 0.025
12,TTAGAAGCCT,1.14 ± 0.02
13,TAAAGGGCT,1.001 ± 0.0055
14,AAGTGTCAGT,0.977 ± 0.065
15,GTTGTATCAT,0.98846 ± 0.00088
16,AGGCAGATAG,1.04 ± 0.025
17,TATTCAGAGG,0.974 ± 0.02
18,AATACGAATA,1.92 ± 1.2
19,ATTTATGAAA,1.04 ± 0.054
20,AAGGAGGGGA,0.978 ± 0.02
21,TGGTGGAAAA,0.973 ± 0.02
22,TTAAGATTGG,0.959 ± 0.015
23,TGAGGTTAGG,1 ± 0.012

row,Sequence,switch fluorescence ratio
1,AAGGCCTTGA,0.988 ± 0.049
2,ATGTCCGTGG,0.99 ± 0.014
3,GATGGGCAGG,1 ± 0.024
4,TGGGTAATGT,1.01 ± 0.023
5,ACTACGCTTG,1.29 ± 0.022
6,CCGGGAGCGC,1.98 ± 0.83
7,TTTGTGGTTA,1.04 ± 0.056
8,CGCGGGACTT,2.01 ± 1.4
9,TCGGGGTTAT,1.04 ± 0.083
10,TTACTCGCAT,2.3 ± 1.2
11,CCGGGGGTCC,1.02 ± 0.019
12,TTGGCTGTTT,1.016 ± 0.01
13,GGTTTCGAAT,0.98 ± 0.049
14,CTATGCTGGT,1.01 ± 0.037
15,GGGAATTAGG,1 ± 0.021
16,ATAGGGTTGG,0.996 ± 0.049
17,TGTTCGAGGC,1.03 ± 0.013
18,GTGCTTAGGC,1.06 ± 0.026
19,GCACGAGTGC,0.97 ± 0.02
20,GCGAAAGGCG,0.992 ± 0.022
21,ATCGTACAGC,1.13 ± 0.017
22,GCGGTTGAGG,1.001 ± 0.009
23,TCGAATGGGT,1.02 ± 0.013

row,Sequence,switch fluorescence ratio
1,AATTCATGTA,0.9886 ± 0.0064
2,GTGGGTTGTA,1.01 ± 0.05
3,GGTTTGTATG,0.976 ± 0.021
4,CCCGTTTGGG,0.981 ± 0.023
5,CGGTAGTGAG,1.04 ± 0.014
6,TGCAGTGGGA,1.02 ± 0.016
7,CTATGTCGGT,0.974 ± 0.015
8,TCGAATATTG,0.9849 ± 0.004
9,TTGCTCTCTT,0.98 ± 0.083
10,GGTCTGCTTA,0.9828 ± 0.0065
11,TAGAGGGTAC,1.19 ± 0.24
12,TATATAGGAA,1.018 ± 0.0064
13,TTTGAATAAG,0.995 ± 0.023
14,TTGGGGGACC,0.998 ± 0.025
15,GTGTTTCTAT,1 ± 0.013
16,TTGCCGGTAT,1.05 ± 0.021
17,TTTGGTTTT,0.988 ± 0.027
18,GGTGTGTTCT,0.985 ± 0.011
19,TGGATAATCG,0.996 ± 0.024
20,ACTATGGAGC,1.07 ± 0.077
21,GGGGCTCTCG,0.99 ± 0.012
22,GTTAAAAAAT,1.06 ± 0.17
23,GGGCCACGTA,0.971 ± 0.082

row,Sequence,switch fluorescence ratio
1,TTAGGCGCCC,0.981 ± 0.029
2,AGAGTTGGGT,0.984 ± 0.02
3,TCGTCAGTG,0.991 ± 0.012
4,GGGTACATTT,0.987 ± 0.016
5,TTTATGTAAG,0.988 ± 0.065
6,TGTGAATAGG,1.02 ± 0.065
7,TTCAGAGTTG,0.985 ± 0.095
8,TAATTGGTTG,0.982 ± 0.012
9,CGTTTACCGT,0.983 ± 0.019
10,GGGCTGCATT,1.01 ± 0.011
11,ATAGACGTGT,1.02 ± 0.092
12,ACTTTCTGAC,1.22 ± 0.24
13,GAAATCCAGG,1.297 ± 0.0087
14,TCAGGGGTGT,1.08 ± 0.024
15,GGGTACGCAG,1.01 ± 0.029
16,CCAGTATTTT,0.999 ± 0.015
17,TGGGAAATGG,1 ± 0.024
18,CACAATATCT,1.124 ± 0.0037
19,AGGCCGGTGA,1.01 ± 0.018
20,TTCGCAGGTT,1.05 ± 0.075
21,TCAGTCATTT,1.003 ± 0.0066
22,ATGTGTTGGG,0.973 ± 0.032
23,CAGGGGCCAA,0.979 ± 0.017

row,Sequence,switch fluorescence ratio
1,CGGGGGCGCC,1.02 ± 0.031
2,ATTGTTTGAT,1.01 ± 0.022
3,GATGGTAGTC,0.994 ± 0.027
4,TATAGGTCGG,0.9695 ± 0.0057
5,GGACTATGCG,0.985 ± 0.032
6,CCTGTTTTCG,1.06 ± 0.05
7,TATAGCCGGG,1 ± 0.069
8,AGTTTACTTT,1.03 ± 0.017
9,AGAAGGATTA,1 ± 0.017
10,TACCCGCTGT,1.56 ± 0.39
11,CGCGGAGATG,1.01 ± 0.035
12,GGAAGCGGGT,0.994 ± 0.042
13,GGATAATGGC,0.94 ± 0.059
14,GCGGTGGATC,1.04 ± 0.027
15,AAAACGTTTA,1.01 ± 0.043
16,GTTTAAGGGG,1.005 ± 0.0068
17,TGTTGGTTGT,0.9935 ± 0.0067
18,GCGCTGCTGT,1.04 ± 0.038
19,TCTATTTGGT,0.9827 ± 0.0098
